Data: US20110305750

Test system: GST-MT1-MMP cytoplasmic tail fusion protein

For recombinant Src kinase, which “tyrosine phosphorylation of GST-MT in an in vitro phosphorylation assay (western blot)” value is on record?
Its value is “Src-mediated tyrosine phosphorylation of GST-MT”.
